System: Bacillus subtilis
Experiment: cleaved RNA product abundance (RNA/gDNA barcode ratio) relative to median wild-type variant (ratio to wild type); higher = more accumulation of the downstream cleavage product
In short: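 Cleaved product abundance was measured with barcoded reporter mRNAs (truncated aprE or tetM) carrying mutagenized RNase Y cleavage-site windows in the B. subtilis chromosome. Cultures in LB at 37°C grew from OD600 0.0003 to 0.3. Gel-selected cleaved RNA was reverse transcribed and barcode-sequenced with genomic DNA barcodes, and the RNA:gDNA barcode ratio per construct was scaled to the median construct bearing the unmutated site.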

[1] = experiment (reporter, strain, medium): exp 8a: truncated aprE reporter, strain BJT201 with 2% xylose (RNase J1 expressed), cleavage site: glnRA (positions -5 to +31 mutated)
[2] = experiment (reporter, strain, medium): exp 2b: truncated aprE reporter, strain BJT200, cleavage site: cggR-gapA (positions -7 to +36 mutated)
[3] = experiment (reporter, strain, medium): exp 4a: truncated aprE reporter, strain BJT201 with 2% xylose (RNase J1 expressed), cleavage site: cggR-gapA (positions -7 to +36 mutated)
[4] = experiment (reporter, strain, medium): exp 6: tetM reporter, strain 168, cleavage site: cggR-gapA (positions -7 to +36 mutated)

Row | Sequence | cleaved RNA product abundance [1] | cleaved RNA product abundance [2] | cleaved RNA product abundance [3] | other results
1 | CGACATGTCCCGCTTCTTTCATTAATTCGTTAGCAACTGTTTTGCTATATACATTTACCCTTTAAGAGGAGGAAT | 0.564 | – | – | –
2 | ACAGACGAAGGAGCCGCAAAGAAGTTATTAAGGGATGAATGATCCCTCAATATAAATATCTCTCACTTATTTAAA | – | 0.466 | 0.699 | cleaved RNA product abundance [4]: 0.63
3 | ACAGACGAAGGAGCCGCAAAGAATTTATTAAGGCATGAATAATCCCTCTATATAAATATCTCTCACTTATTTAAA | – | – | 0.107 | –
4 | CGACATGTCCCGCTTCTTTCATTAATCCGTTAGCAACTTTATTGCTATATACATTTACCTTTTAAGAGGAGGAAT | 0.922 | – | – | –
5 | CGACATGTCCCGCTTCTTTCATTATTCCGTTAGCAACTCTTTTGCTAAATACATTTACCTTTTAAGAGGAGGAAT | 0.422 | – | – | –
6 | ACAGACGAAGGAGCCGCAAAGAAGTTATTAAGGGATAAATAATCCCTCAATTTAAATATCTCTCACTTATTTAAA | – | – | 0.167 | –
7 | CGACATGTCCCGCTTCTTTCATTAATCCGTTACCAACTGTTTTGCTATATCCATTTACCTTTTAAGAGGAGGAAT | 0.206 | – | – | –
8 | ACAGACGAAGGAGCCGCAAAGAAGTTATTGAGGGCTGAATAATCCCTCAATATAAATATCTCTCACTTATTTAAA | – | – | 0.167 | –
9 | ACAGACGAAGGAGCCGCAAAGCAATTATTAAGGGATGAATAATCCCTCAATATAAATATCTCTCACTTATTTAAA | – | – | 0.718 | –
10 | ACAGACGAAGGAGCCGCAAAGAAGTTATTAATGGATGAATAATCCTTCAATATAAATATCTCTCACTTATTTAAA | – | 0.212 | 0.191 | –
11 | ACAGACGAAGGAGCCGCAAAGAAGTAATTAAGGTATGAATAATCCCTCAATATAAATATCTCTCACTTATTTAAA | – | 0.0974 | 0.112 | –
12 | CGACATGTCCCGCTTCTTTCATTAATCCGTTAACAACTGTTTTGCTAAATACATTTACCTTTTAAGAGGAGGAAT | 0.202 | – | – | –
13 | ACAGACGAAGGAGCCGCAAATAAGTTATTAAGGGATGAATAATCCCTCAATGTAAATATCTCTCACTTATTTAAA | – | – | 0.178 | –
14 | ACAGACGAAGGAGCCGCAAAGAAGTTATTAAGGGATAAATAATTCCTCAATATAAATATCTCTCACTTATTTAAA | – | – | 0.294 | –
15 | ACAGACGAAGGAGCCGCACAGAATTTATTAAGGGATGAATAATCCCTCAATATAAATATCTCTCACTTATTTAAA | – | 0.544 | 0.488 | –
16 | ACAGACGAAGGAGCCGCAAAGAAGTTATTAAGGGATGAAGAATTCCTCAATATAAATATCTCTCACTTATTTAAA | – | – | 0.29 | –
17 | CGACATGTCCCGCTTCTTTCATTAATCTGTTAGGAACTGTTTTGCTATATACATTTACCTTTTAAGAGGAGGAAT | 0.268 | – | – | –
18 | CGACATGTCCCGCTTCTTTCATTAATCCGTTAGTAACTGTTTTGCTATATACATTTACCATTTAAGAGGAGGAAT | 0.33 | – | – | –
19 | ACAGACGAAGGAGCCGCAAAGAAGTTATTAATGGATGAATGATCCCTCAATATAAATATCTCTCACTTATTTAAA | – | – | 0.113 | –
20 | ACAGACGAAGGAGCCGCAAAGATGTTATTAAGGGATGAATAATCACTCAATATAAATATCTCTCACTTATTTAAA | – | – | 0.181 | –

Row | Sequence | cleaved RNA product abundance [1] | cleaved RNA product abundance [2] | cleaved RNA product abundance [3] | other results
21 | CGACATGTCCCGCTTCTTTCATTAATCTGTTAGCAACTGTTTTGCTATATACATTCACCTTTTAAGAGGAGGAAT | 0.488 | – | – | –
22 | CGACATGTCCCGCTTCTTTCATTAATCCGTTATCAAGTGTTTTGCTATATACATTTACCTTTTAAGAGGAGGAAT | 0.202 | – | – | –
23 | CGACATGTCCCGCTTCTTTCATTAATCCGTTAGCAACTGTTTTGCTATATACAATAACCTTTTAAGAGGAGGAAT | 0.855 | – | – | –
24 | ACAGACGAAGGAGCCGCAAAGAAGTTATTTAGGGTTGAATAATCCCTCAATATAAATATCTCTCACTTATTTAAA | – | 0.225 | 0.344 | –
25 | CGACATGTCCCGCTTCTTTCATTAATCCGATAGAAACTGTTTTGCTATATACATTTACCTTTTAAGAGGAGGAAT | 0.302 | – | – | –
26 | CGACATGTCCCGCTTCTTTCATTAATCCGTTAGCAACTGTTTTTCTATATACATTTTACCTTTTAAGAGGAGGAA | 0.435 | – | – | –
27 | ACAGACGAAGGAGCCGCAAAGAAGTTATTAAGGGATGAATAATCCCTCAATATATATATCTCTCACTTATTTAAA | – | 0.874 | 0.885 | cleaved RNA product abundance [4]: 0.832
28 | ACAGACGAAGGAGCCGCAAAGTAGTTATTAAGGGATGAACAATCCCTCAATATAAATATCTCTCACTTATTTAAA | – | – | 0.763 | –
29 | ACAGACGAAGGAGCCGCAAAGAAGTTATTAAGGGATGAATAATCCCTCAATATAGATATCTCTCACTTATTTAAA | – | 0.711 | 0.683 | –
30 | ACAGACGAAGGAGCCGCAAAAAAGTTATTAAGGGATGAATAATCCCTCAACATAAATATCTCTCACTTATTTAAA | – | 0.239 | 0.272 | –
31 | ACAGACGAAGGAGCCGCAAAGAAATTATTAAGGGATGAATAATCGCTCAATATAAATATCTCTCACTTATTTAAA | – | – | 0.101 | –
32 | ACAGACGAAGGAGCCGCAAAGAAGTTATTAAGGGATGAATAGTCCCTAAATATAAATATCTCTCACTTATTTAAA | – | – | 0.547 | –
33 | ACAGACGAAGGAGCCGCATAGAAGTTATAAAGGGATGAATAATCCCTCAATATAAATATCTCTCACTTATTTAAA | – | – | 0.339 | –
34 | ACAGACGAAGGAGCCGCAAAGAAGTTATTAAGGGATGTATAATCCCACAATATAAATATCTCTCACTTATTTAAA | – | – | 0.308 | –
35 | ACAGACGAAGGAGCCGCAAAGAAGTTATTAAGGGGTGAATAATCCGTCAATATAAATATCTCTCACTTATTTAAA | – | 0.159 | 0.0683 | –
36 | CGACATGTCCCGCTTCTTTCATTAATCCCTTACCAACTGTTTTGCTATATACATTTACCTTTTAAGAGGAGGAAT | 0.187 | – | – | –
37 | ACAGACGAAGGAGCCGCAAAGAAGTTATAAAGAGATGAATAATCCCTCAATATAAATATCTCTCACTTATTTAAA | – | 0.11 | 0.137 | –
38 | CGACATGTCCCGCTTCTTTCATTAATCCGTTATCAACTGTTTTACTATATACATTTACCTTTTAAGAGGAGGAAT | 0.335 | – | – | –
39 | ACAGACGAAGGAGCCGCAAAGACGTTATTAAGGGATGAATAATCACTCAATATAAATATCTCTCACTTATTTAAA | – | 0.101 | 0.188 | –
40 | ACAGACGAAGGAGCCGCAAAGAAGTTATTAAGGGATGAATAATCAATCAATATAAATATCTCTCACTTATTTAAA | – | 0.13 | 0.107 | –

Row | Sequence | cleaved RNA product abundance [1] | cleaved RNA product abundance [2] | cleaved RNA product abundance [3] | other results
41 | CGACATGTCCCGCTTCTTTCATTAATCCGTTATCAACTGTATTGCTATATACATTTACCTTTTAAGAGGAGGAAT | 0.306 | – | – | –
42 | ACAGACGAAGGAGCCGCAAAGAAGTTAAAAAGGGATGAATAATCCCTCAATATAAATATCTCTCACTTATTTAAA | – | 0.268 | 0.392 | –
43 | ACAGACGAAGGAGCCGCAAAGTAGTTATTAAGGGATGAATAATCCCTGAATATAAATATCTCTCACTTATTTAAA | – | 0.409 | 0.524 | –
44 | ACAGACGAAGGAGCCGCAAAGAAGTTATTAAAGGATGAGTAATCCCTCAATATAAATATCTCTCACTTATTTAAA | – | – | 0.202 | –
45 | CGACATGTCCCGCTTCTTTCATTAATTCGTTAGCAACTGTTTAGCTATATACATTTACCTTTTAAGAGGAGGAAT | 0.488 | – | – | –
46 | CGACATGTCCCGCTTCTTTCATTAATCCGTTAGCAACTGTTTTGCAATATACATTTAGCTTTTAAGAGGAGGAAT | 0.72 | – | – | –
47 | CGACATGTCCCGCTTCTTTCATTAATCCGTAAGCAACTGTTTTGCTATATACATTTACCATTTAAGAGGAGGAAT | 0.381 | – | – | –
48 | CGACATGTCCCGCTTCTTTCATTAATCCGTTAGCAACTGTTTTGCAATATCCATTTACCTTTTAAGAGGAGGAAT | 0.156 | – | – | –
49 | ACAGACGAAGGAGCCGCAAAGAAGTTATTAACGGATGAATAATCCCTCAATATACATATCTCTCACTTATTTAAA | – | – | 0.231 | –
50 | CGACATGTCCCGCTTCTTTCATTAATCCGTTCGCAACTGTTTTGCTATATACATTTACCTTTTAAGAGGAGGAAT | 0.345 | – | – | –
51 | ACAGACGAAGGAGCCGCAAAGAAGTTATTAATGGATGAATAATCTCTCAATATAAATATCTCTCACTTATTTAAA | – | 0.108 | 0.14 | –
52 | ACAGACGAAGGAGCCGCAAAGAACTTATTAAGGGATGAATAATCCCTAAATATAAATATCTCTCACTTATTTAAA | – | 0.258 | 0.454 | –
53 | CGACATGTCCCGCTTCTTTCATTAATCCCTTAGCAACTGTTTTTCTATATACATTTACCTTTTAAGAGGAGGAAT | 0.163 | – | – | –
54 | ACAGACGAAGGAGCCGCAAAGAATTTATTAAGGGATGAATAATTCCTCAATATAAATATCTCTCACTTATTTAAA | – | – | 0.394 | –
55 | CGACATGTCCCGCTTCTTTCATTAATCCGTTAGCACCTCTTTTGCTATATACATTTACCTTTTAAGAGGAGGAAT | 0.235 | – | – | –
56 | CGACATGTCCCGCTTCTTTCATTAATCCGTTAGCAACTGTTTTACTATATACATTTACGTTTTAAGAGGAGGAAT | 0.77 | – | – | –
57 | ACAGACGAAGGAGCCGCAATGAAGTTTTTAAGGGATGAATAATCCCTCAATATAAATATCTCTCACTTATTTAAA | – | – | 0.578 | –
58 | ACAGACGAAGGAGCCGCAAAGAACTTATTAAGGGATGAATAATCCCTCAGTATAAATATCTCTCACTTATTTAAA | – | 0.128 | 0.309 | –
59 | CGACATGTCCCGCTTCTTTCATTAATCCGTTAGTAACTGTTGTGCTATATACATTTACCTTTTAAGAGGAGGAAT | 0.358 | – | – | –
60 | ACAGACGAAGGAGCCGCAAGAAGTTATTAAGGGATGAATAATCCCTCAATATAAATATCTCTCACTTATTTAAAG | – | 1.27 | 0.931 | –

Reference: the supplement of paper PMC11780869
